Laboratory results reported in PMC11009412, “Pathogenic mutations of human phosphorylation sites affect protein–protein interactions” (Nature Communications, 2024).

System: BirA*-FLAG-GATAD1 variants in Flp-In-293 cells
Test: BioID proximity labelling of full-length GATAD1 variants (SILAC)
Format: cell-based, human
Settings: GATAD1 WT vs S102P, significant proteins only; for Log2_Ratio.H.L.normalized.WT_S102P_forward: forward experiment (label swap performed, sign inverted against the H/L ratio); for Log2_Ratio.H.L.normalized.WT_S102P_forward / Log2_Ratio.H.L.normalized.WT_S102P_reverse: log2 of normalized H/L ratio; for Ratio.H.L.normalized.WT_S102P_forward: forward experiment; for Log2_Ratio.H.L.normalized.WT_S102P_reverse / Ratio.H.L.normalized.WT_S102P_reverse: reverse experiment
How it was run: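 Tetracycline-inducible Flp-In-293 T-REx lines expressing N-terminal BirA*-FLAG GATAD1 variants (WT, S102P, S102D, S102A) were SILAC-labelled, induced with 1 μg/mL tetracycline for 24 h and given 50 μM biotin overnight. Streptavidin-enriched proteins were trypsin-digested on-bead and analysed by LC-MS/MS. Label-swapped log2 SILAC ratios beyond ±1 defined differential proteins (n = 2).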

Molecule | Log2_Ratio.H.L.normalized.WT_S102P_forward | Ratio.H.L.normalized.WT_S102P_forward | Log2_Ratio.H.L.normalized.WT_S102P_reverse | Ratio.H.L.normalized.WT_S102P_reverse
THRAP3 (protein, UniProt Q9Y2W1 2-955, looked up) Thyroid hormone …: SKTNKSKSGSRSSRSRSASRSRSRSFSKSRSRSRSLSRSRKRRLSSRSRSRSYSPAHNRERNHPRVYQNRDFRGHNRGYRRPYYFRGRNRGFYPWGQYNRGGYGNYRSNWQNYRQAYSPRRGRSRSRSPKRRSPSPRSRSHSRNSDKSSSDRSRRSSSSRSSSNHSRVESSKRKSAKEKKSSSKDSRPSQAAGDNQGDEAKEQTFSGGTSQDTKASESSKPWPDATYGTGSASRASAVSELSPRERSPALKSPLQSVVVRRRSPRPSPVPKPSPPLSSTSQMGSTLPSGAGYQSGTHQGQFDHGSGSLSPSKKSPVGKSPPSTGSTYGSSQKEESAASGGAAYTKRYLEEQKTENGKDKEQKQTNTDKEKIKEKGSFSDTGLGDGKMKSDSFAPKTDSEKPFRGSQSPKRYKLRDDFEKKMADFHKEEMDDQDKDKAKGRKESEFDDEPKFMSKVIGANKNQEEEKSGKWEGLVYAPPGKEKQRKTEELEEESFPERSKKEDRGKRSEGGHRGFVPEKNFRVTAYKAVQEKSSSPPPRKTSESRDKLGAKGDFPTGKSSFSITREAQVNVRMDSFDEDLARPSGLLAQERKLCRDLVHSNKKEQEFRSIFQHIQSAQSQRSPSELFAQHIVTIVHHVKEHHFGSSGMTLHERFTKYLKRGTEQEAAKNKKSPEIHRRIDISPSTFRKHGLAHDEMKSPREPGYKAEGKYKDDPVDLRLDIERRKKHKERDLKRGKSRESVDSRDSSHSRERSAEKTEKTHKGSKKQKKHRRARDRSRSSSSSSQSSHSYKAEEYTEETEEREESTTGFDKSRLGTKDFVGPSERGGGRARGTFQFRARGRGWGRGNYSGNNNNNSNNDFQKRNREEEWDPEYTPKSKKYYLHDDREGEGSDKWVSRGRGRGAFPRGRGRFMFRKSSTSPKWAHDKFSGEEGEIEDDESGTENREEKDNIQPTTE | 1.318 | 0.4011 | 1.052 | 2.0733
RANBP3 (protein, UniProt Q9H6Z4 2-567, looked up) Ran-binding protein 3: ADLANEEKPAIAPPVFVFQKDKGQKSPAEQKNLSDSGEEPRGEAEAPHHGTGHPESAGEHALEPPAPAGASASTPPPPAPEAQLPPFPRELAGRSAGGSSPEGGEDSDREDGNYCPPVKRERTSSLTQFPPSQSEERSSGFRLKPPTLIHGQAPSAGLPSQKPKEQQRSVLRPAVLQAPQPKALSQTVPSSGTNGVSLPADCTGAVPAASPDTAAWRSPSEAADEVCALEEKEPQKNESSNASEEEACEKKDPATQQAFVFGQNLRDRVKLINESVDEADMENAGHPSADTPTATNYFLQYISSSLENSTNSADASSNKFVFGQNMSERVLSPPKLNEVSSDANRENAAAESGSESSSQEATPEKESLAESAAAYTKATARKCLLEKVEVITGEEAESNVLQMQCKLFVFDKTSQSWVERGRGLLRLNDMASTDDGTLQSRLVMRTQGSLRLILNTKLWAQMQIDKASEKSIRITAMDTEDQGVKVFLISASSKDTGQLYAALHHRILALRSRVEQEQEAKMPAPEPGAAPSNEEDDSDDDDVLAPSGATAAGAGDEGDGQTTGST | 1.029 | 0.49 | 1.139 | 2.2024
WDR70 (protein, UniProt Q9NW82 1-654, looked up) WD repeat-containing protein …: MERSGPSEVTGSDASGPDPQLAVTMGFTGFGKKARTFDLEAMFEQTRRTAVERSRKTLEAREKEEEMNREKELRRQNEDIEPTSSRSNVVRDCSKSSSRDTSSSESEQSSDSSDDELIGPPLPPKMVGKPVNFMEEDILGPLPPPLNEEEEEAEEEEEEEEEEENPVHKIPDSHEITLKHGTKTVSALGLDPSGARLVTGGYDYDVKFWDFAGMDASFKAFRSLQPCECHQIKSLQYSNTGDMILVVSGSSQAKVIDRDGFEVMECIKGDQYIVDMANTKGHTAMLHTGSWHPKIKGEFMTCSNDATVRTWEVENPKKQKSVFKPRTMQGKKVIPTTCTYSRDGNLIAAACQNGSIQIWDRNLTVHPKFHYKQAHDSGTDTSCVTFSYDGNVLASRGGDDSLKLWDIRQFNKPLFSASGLPTMFPMTDCCFSPDDKLIVTGTSIQRGCGSGKLVFFERRTFQRVYEIDITDASVVRCLWHPKLNQIMVGTGNGLAKVYYDPNKSQRGAKLCVVKTQRKAKQAETLTQDYIITPHALPMFREPRQRSTRKQLEKDRLDPLKSHKPEPPVAGPGRGGRVGTHGGTLSSYIVKNIALDKTDDSNPREAILRHAKAAEDSPYWVSPAYSKTQPKTMFAQVESDDEEAKNEPEWKKRKI | 1.547 | 0.3422 | 1.108 | 2.1553
ESF1 (protein, UniProt Q9H501 2-851, looked up) ESF1 homolog: SSKQEIMSDQRFRRVAKDPRFWEMPEKDRKVKIDKRFRAMFHDKKFKLNYAVDKRGRPISHSTTEDLKRFYDLSDSDSNLSGEDSKALSQKKIKKKKTQTKKEIDSKNLVEKKKETKKANHKGSENKTDLDNSIGIKKMKTSCKFKIDSNISPKKDSKEFTQKNKKEKKNIVQHTTDSSLEEKQRTLDSGTSEIVKSPRIECSKTRREMQSVVQLIMTRDSDGYENSTDGEMCDKDALEEDSESVSEIGSDEESENEITSVGRASGDDDGSEDDEEEDEDEEEDEDEDSEDDDKSDSGPDLARGKGNIETSSEDEDDTADLFPEESGFEHAWRELDKDAPRADEITRRLAVCNMDWDRLKAKDLLALFNSFKPKGGVIFSVKIYPSEFGKERMKEEQVQGPVELLSIPEDAPEKDWTSREKLRDYQFKRLKYYYAVVDCDSPETASKIYEDCDGLEFESSCSFIDLRFIPDDITFDDEPKDVASEVNLTAYKPKYFTSAAMGTSTVEITWDETDHERITMLNRKFKKEELLDMDFQAYLASSSEDEEEIEEELQGDDGVNVEEDGKTKKSQKDDEEQIAKYRQLLQVIQEKEKKGKENDMEMEIKWVPGLKESAEEMVKNKLEGKDKLTPWEQFLEKKKEKKRLKRKQKALAEEASEEELPSDVDLNDPYFAEEVKQIGINKKSVKSAKDGTSPEEEIEIERQKAEMALLMMDEDEDSKKHFNYNKIVEHQNLSKKKKKQLMKKKELIEDDFEVNVNDARFQAMYTSHLFNLDPSDPNFKKTKAMEKILEEKARQRERKEQELTQAIKKKESEIEKESQRKSIDPALSMLIKSIKTKTEQFQARKKQKVK | 1.318 | 0.401 | 1.077 | 2.1103
ACIN1 (protein, UniProt Q9UKV3 1-1341, looked up) Apoptotic chromatin …: MWRRKHPRTSGGTRGVLSGNRGVEYGSGRGHLGTFEGRWRKLPKMPEAVGTDPSTSRKMAELEEVTLDGKPLQALRVTDLKAALEQRGLAKSGQKSALVKRLKGALMLENLQKHSTPHAAFQPNSQIGEEMSQNSFIKQYLEKQQELLRQRLEREAREAAELEEASAESEDEMIHPEGVASLLPPDFQSSLERPELELSRHSPRKSSSISEEKGDSDDEKPRKGERRSSRVRQARAAKLSEGSQPAEEEEDQETPSRNLRVRADRNLKTEEEEEEEEEEEEDDEEEEGDDEGQKSREAPILKEFKEEGEEIPRVKPEEMMDERPKTRSQEQEVLERGGRFTRSQEEARKSHLARQQQEKEMKTTSPLEEEEREIKSSQGLKEKSKSPSPPRLTEDRKKASLVALPEQTASEEETPPPLLTKEASSPPPHPQLHSEEEIEPMEGPAPAVLIQLSPPNTDADTRELLVSQHTVQLVGGLSPLSSPSDTKAESPAEKVPEESVLPLVQKSTLADYSAQKDLEPESDRSAQPLPLKIEELALAKGITEECLKQPSLEQKEGRRASHTLLPSHRLKQSADSSSSRSSSSSSSSSRSRSRSPDSSGSRSHSPLRSKQRDVAQARTHANPRGRPKMGSRSTSESRSRSRSRSRSASSNSRKSLSPGVSRDSSTSYTETKDPSSGQEVATPPVPQLQVCEPKERTSTSSSSVQARRLSQPESAEKHVTQRLQPERGSPKKCEAEEAEPPAATQPQTSETQTSHLPESERIHHTVEEKEEVTMDTSENRPENDVPEPPMPIADQVSNDDRPEGSVEDEEKKESSLPKSFKRKISVVSATKGVPAGNSDTEGGQPGRKRRWGASTATTQKKPSISITTESLKSLIPDIKPLAGQEAVVDLHADDSRISEDETERNGDDGTHDKGLKICRTVTQVVPAEGQENGQREEEEEEKEPEAEPPVPPQVSVEVALPPPAEHEVKKVTLGDTLTRRSISQQKSGVSITIDDPVRTAQVPSPPRGKISNIVHISNLVRPFTLGQLKELLGRTGTLVEEAFWIDKIKSHCFVTYSTVEEAVATRTALHGVKWPQSNPKFLCADYAEQDELDYHRGLLVDRPSETKTEEQGIPRPLHPPPPPPVQPPQHPRAEQREQERAVREQWAEREREMERRERTRSEREWDRDKVREGPRSRSRSRDRRRKERAKSKEKKSEKKEKAQEEPPAKLLDDLFRKTKAAPCIYWLPLTDSQIVQKEAERAERAKEREKRRKEQEEEEQKEREKEAERERNRQLEREKRREHSRERDRERERERERDRGDRDRDRERDRERGRERDRRDTKRHSRSRSRSTPVRDRGGRR | 1.249 | 0.4208 | 1.096 | 2.1371
C11orf58;SMAP (protein, UniProt O00193 1-183, looked up) Small acidic protein: MSAARESHPHGVKRSASPDDDLGSSNWEAADLGNEERKQKFLRLMGAGKKEHTGRLVIGDHKSTSHFRTGEEDKKINEELESQYQQSMDSKLSGRYRRHCGLGFSEVEDHDGEGDVAGDDDDDDDDSPDPESPDDSESDSESEKEESAEELQAAEHPDEVEDPKNKKDAKSNYKMMFVKSSGS | 1.333 | 0.3971 | 1.1961 | 2.2912
WDR83 (protein, UniProt Q9BRX9 1-315, looked up) WD repeat domain-containing …: MAFPEPKPRPPELPQKRLKTLDCGQGAVRAVRFNVDGNYCLTCGSDKTLKLWNPLRGTLLRTYSGHGYEVLDAAGSFDNSSLCSGGGDKAVVLWDVASGQVVRKFRGHAGKVNTVQFNEEATVILSGSIDSSIRCWDCRSRRPEPVQTLDEARDGVSSVKVSDHEILAGSVDGRVRRYDLRMGQLFSDYVGSPITCTCFSRDGQCTLVSSLDSTLRLLDKDTGELLGEYKGHKNQEYKLDCCLSERDTHVVSCSEDGKVFFWDLVEGALALALPVGSGVVQSLAYHPTEPCLLTAMGGSVQCWREEAYEAEDGAG | 1.042 | 0.4856 | 1.085 | 2.1217
